# Experimental data from article PMC8646660 (EMBO Molecular Medicine, 2021).
# B1: FD20 (IgG format) (antibody, V domains shown)
# VH: QVQLQQSGAEVKKPGSSVKVSCKASGGTFSSYAFSWVRQAPGQGLEWMGRIIPILGIANYAQKFQGRVTITADISTSTAYMALSSLRSEDTAVYYCAKVEVNIGMDDYYYYYGMDVWGQGTTVTVSS
# VL: not shown
# Biological target: SARS-CoV-2 S receptor-binding domain (RBD), biotinylated (SARS-CoV-2, UniProt P0DTC2, biotin on the Avi tag (enzymatic, BirA))
# Experiment: cell-based or functional assay
binder,measurement,value
B1,"neutralisation of SARS-CoV-2 pp harbouring wild-type S, IC50 (fold in brackets)",12 nM
